Measurements published in the supplement of paper PMC9170038.

Tested on: K4 kissing-loop RNA reporter
Assay: apparent KD of K4 kissing-loop reporter; higher = weaker reporter binding
Details: Eterna round: R107
Experimental: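 RNA-MaP round R107: designed RNA switches with theophylline, tryptophan, arginine or FMN aptamers are transcribed on-chip within common flanks. They are titrated with a labelled K4 kissing-loop RNA reporter in RNA-MaP buffer (100 mM Tris pH 7.5, 80 mM KCl, 4 mM MgCl2), without ligand or with the indicated ligand. Median apparent KD per design.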

[1] = input ligand: theophylline 20 uM
[2] = input ligand: tryptophan 2.4 mM
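Further: bound reporter read as fluorescence of individual clusters on recovered sequencing chips by microscopy, with normalized cluster intensities fitted with a binding model.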

Sequence	apparent KD of K4 kissing-loop reporter (input ligand: FMN 200 uM) [nM]	apparent KD of K4 kissing-loop reporter (input ligand: arginine 13.2 mM) [nM]	apparent KD of K4 kissing-loop reporter (input ligand: none) [nM]	apparent KD of K4 kissing-loop reporter [1] [nM]	apparent KD of K4 kissing-loop reporter [2] [nM]
GCCGUAGAUGGAAGGAGCGUGGUUAAUGUAAGUGAUGUUUACGAGGUCAACAAUUGACCGCCACAGGUAGGUCGCCAUCUACGGC	60.4	57.4	57.2	53.1	56.4
GCCGUAGAUUGAAGGAGCGGGCCGUAGUGAUGUUACGCCAAUUUAUCUUUUCUUGAUGUGGCCCAGGUAGGUCGCAAUCUACGGC	241	204	216	207	193
GCCGUAGAUUGAAGGAGCGGUAUGGGCGUUGGCUGAGUGAUGUUCAGGGAAAGUGGCUUCUACCAGGUAGGUCGCAAUCUACGGC	164	129	157	170	137
GCCUAGGCUCGAAAGAGCCUAGGCUUGUCUCAGGAUAUCUGGAAACAGAGAAGGGAGCUACUAGUGAUGUUAGGAAUUCCCUAAG	149	122	112	92.3	98
GCCUAGGCUCGAAAGAGCCUAGGCUUUACUCAGGAUAUCUGGAAACAGAGAAGGGAGCUACUAGUGAUGUUAGGAAUUCCCUAAG	45.9	80.3	133	141	87.8
GCCUUUUUUCGAGCUACAGCUCGAUUUGGUCGAGGACCGGUACGGCCGCCACUCGAAUGAUAGUGAUGUUAUCAUUAUGGCAUAA [JR_ExcTryptoA_Sub023]	196	166	176	186	152
GCGCGUCAUGUCAGCGGUGACACUGUCGAUACCAGCGCCGGAAGGCGCCCUUGGCAGCGACGUGCUGGAGUGAUGUUCCAGCGUC [#2 Exclusion - Theophylline A Attempt #21 (HarryS)]	177	107	140	130	134
GCGCGUCAUGUCAGCGGUGACUAUGUCGAUACCAGCAGGGAAACCUGCCCUUGGCAGCGACGCGCUGGAGUGAUGUUCCGACGGC [#2 Exclusion - Theophylline A Attempt #8 (HarryS)]	165	153	154	173	145
GCGCGUCAUGUCAGCGGUGACUCUGUCGAUACCAGCGCCGCAAGGCGCCCUUGGCAGCGACGCGCUGGAGUGAUGUUCCAGCGUG [#2 Exclusion - Theophylline A Attempt #13 (HarryS)]	157	142	160	150	145
GCGGACAUUCGCAGUGAUGUUGCGACGGAAGGAGCGGAUGAAAAUCCAGGUAGGUCGCCGACAAAAUUAAUUUUAAUGUGUUCGC [#03 K4 Arginine A Same State]	358	325	437	316	324
GCGUGGCAGGCGGCCGCCACUCGGACGAGUCACAGUGAUGUUGUGGUUUGCCAGUCGUCUUCAUCGAGGACCGGGUUUGUUGCGC [Exclusion Tryptophan B GF 18]	206	169	212	159	171
GCUAGCAAUGCAGGAUAUUAAAACGAGUGAUGUUCGGUACCGAGGAUGGGAAACCAUCCUCGGUAAUAAGAAGGGCAUUGCUAGC	210	182	194	211	172
GCUAUAGUGUUAGAUACCAGUAUCCUGCAAAGCCAUCAAAUGCAGUGAUGUUGCAUAAACUACCCUUGGCAGCUAAUUGGGCUCU [theeternabot_exclusion_KL_Theo_B_49]	226	201	213	213	187
GCUAUGGUAGGAAGGAGCGCUUAAUUACUAAUAAGAGUGAUGUUCGAUAGUAGGUAUUUGUAGCAGGUAGGUCGCCUACUAUAGC [KL-Arg B24]	264	174	444	230	215
GCUAUGGUAGGAAGGAGCGCUUGCUCGGUCAUAUGAGUGAUGUUCGAGACCGAGCAUUUAUAGCAGGUAGGUCGCCUACUAUAGC [Arginine B K4 8]	253	223	192	200	198
GCUAUGGUUGGAAGGAGCGUUGAAUUGUUGGUAAGAGUGAUGUUCGAUAGUGGAUAGUUGUAGCAGGUAGGUCGCCAACUAUAGC [KL-Arg B27]	377	367	532	517	395
GCUCAUCCGGCAGGAUAUAGGCAGGUAGAGUGAUGUUCGAACUGCAGUUAUCCAUCCUUCUACCUACUAGAAGGGCCGGAUGAGC	376	214	209	188	292
GCUGUCCAGUUCGAUACCAGAGUUAUCGCACUGUAGUGAUAAAGUGAUGUUUUAUCAGUCCUCCCUUGGCAGCGAUGCCCGGCUG [theeternabot_exclusion_KL_Theo_B_25]	164	151	166	165	154
GGACGCCGGUCGGCCGCCACUCACAGCAGUGAUGUUGCUGAGAAUGUAGCGGAGUGAUGUUCCGAGAGGACCGGGACUGCAGUUU [Same State Tryptophan B GF 9]	240	157	198	186	210
GGAGAGGUCUUGUUUGGAUGUGUUUAAUGGCGAGGACCGGUACGGCCGCCACUCGGGUGAUGUUAGUGAUGUUGAUGUAGUGAUG [wzwmullin]	103	76.1	93.4	149	89.5
GGAGCAGGUGAAGGAUAUCCCGGGCCAGAGUGAUGUUCUGGAUCCCUUGCCGUUUCUAAACGGGUGGGAGAAGGUCACUGAUAAG [Bibimati]	132	154	234	180	164
GGAGGAGAAUAUGAUACCAGCAGAGAGAGAGAGGAAGUAUAGUGAUGUUAUAUGUGAGAAUGCCCUUGGCAGCAUAAGAAGAAGG [whbob_SS_Theo_B_sa87]	140	147	156	170	132

Sequence	apparent KD of K4 kissing-loop reporter (input ligand: FMN 200 uM) [nM]	apparent KD of K4 kissing-loop reporter (input ligand: arginine 13.2 mM) [nM]	apparent KD of K4 kissing-loop reporter (input ligand: none) [nM]	apparent KD of K4 kissing-loop reporter [1] [nM]	apparent KD of K4 kissing-loop reporter [2] [nM]
GGAGUUACCUGGGAUACCAGUCGGAGACCCAGAGCUCGGAGUGAUGUUCUGGGAUGUUUCGGCCCUUGGCAGCUCUGGGUCUCCC [#2 Exclusion - Theophylline B Attempt #8 (HarryS)]	909	615	723	936	675
GGAUAGGACAGAGGAUAUCUCUGAGGCAAGAAAACUUGUCUCUAAAGAGAUGACUCAGUGAUGUUGGGAGAAGGCUGUCCUAUCG [FmnBX 10 - #SwitchBubble #StaticStem]	202	139	141	167	125
GGAUAGGACGGAGGAUAUGGGCUAGGCAAGAAUAACUUGUCUAGCAAAUCCAUGAGGAGUGAUGUUCCAGAAGGUUGUCCUAUCG [FmnBX 1 G10+U75]	167	94.7	85.2	106	75.4
GGAUAGGACGGAGGAUAUGGUAGUGAUGUUACCAAACUGGUUAAACAUGUCAGAAAACUGGCAUGACCAGAAGGCUGUCCUAUCG [FmnBX 27 G10]	112	65.2	73	67.5	76.6
GGAUAGGAUAGAGGAUAUGGAGAACACAAAAGUGACUUGUUGUGUUUAUCCAUAGGGAGUGAUGUUCCAGAAGGCUGUCCUAUCG [MatMod 24 - Jieux - Exclusion - FMN B]	296	178	201	183	156
GGAUAGGAUAGAGGAUAUGGCUUACGCAGAAAUAACUUGUUGUGUUUAUCCAUAGGGAGUGAUGUUCCAGAAGGCUGUCCUAUCG [MatMod 18 - Jieux - Exclusion - FMN B]	732	204	266	240	183
GGAUGCAUAGUAGAUACCAGCAAGCUCGGAUAGUGAUGUUGUUCGCAGUCAUUUCGGUAGUGCCCUUGGCAGCUAGACGCCCGAU [theeternabot_exclusion_KL_Theo_B_36]	109	92.7	104	92.3	97.5
GGCACGGUAACGCAACCGCCGUGCGCUUGGGAGGAUAUGUUUCGUGACAGAAGGCCCAGUGAUGUUGGGUCUGUUCAAAAGGACU [Ceenerus]	355	124	105	122	88.7
GGCAGUGAUGUUGCCAGUGGCAGAUGCGAAGGAGCGUGGUGAGACACAGGUAGGUCGCGCAUUGAAAUUGCUGUCACUAAAAUGC [#3]	338	346	326	369	261
GGCCGCAAGGCGAGCGCUCCCACUCCGGAAGGAGCGCCCGGAAGGGCAGGUAGGUCGCCGGAGUGAUGUUCCGGUGGAGGGCUCG [#2 Exclusion - Arginine A Attempt #18 (Inspired by Omei)]	435	319	417	772	469
GGGAAGGACGGAGGAUAUGCACUGAGGAGGAGAAUAUAGUGAUGUUAUAUAAGAGGAAGGAGCUGAGUAGAAGGCCGAGGAAAGG [whbob_SS_FMNB__2th207]	147	87.9	134	92.4	129
GGGAGUAGUGCGGCCGCCACUGAGAAAGAAGAAGAAUAUAGUGAUGUUAUAUAGGAAAGGAAGAAUAGGACCGGGCAUUAGAUUU [SSTRyptB.J]	229	173	263	238	257
GGGAGUAGUGCGGCCGCCACUGUGAAAGUAGAAGAAUAUAGUGAUGUUAUAUAGGAAUAAAAGAAUAGGACCGGGCAUUAGAUUU [SSTRyptB.V]	190	215	212	249	168
GGGCGCGGCGCGGCCGCCACUGCGCCUGGGUGCUCGCCGAGUGAUGUUCGUCGGCGGUUGGGUGGCAGGACCGGGUGCCGGCCCG [BDazzled - #17 SS Tryptophan B]	1580	533	3280	2140	457
GGGUGAGCGCGAAGGAGCGCCCUGACAGGUUGCUGCCGUGGGCAGUGAUGUUGCUCAGUCCGGCAGGUAGGUCGCGUGCUCACCC	187	163	164	210	170
GGUAGCAUGGCGGCCGCCACUAUCCUUCAUGGUUGACAUUAAGGAUAGCAUAGUGAUGUUAUGAAUAGGACCGGGCCAUGCUACC	175	136	163	137	149
GGUAGCAUGGCGGCCGCCACUUACACCACGGCCCUUCUAGUGAUGUUAGAGUGGAUUAUUCCGUUAAGGACCGGGCCAUGCUACC	629	430	745	650	273
GGUGACAACCAGAGGUGAUGUAUAGAAUCGCGAGGACCGGUACGGCCGCCACUCGUGAAGAGAAAGGAGUGAUGUUCCGUAAUGG [Kazoo C6]	271	249	282	364	124
GGUGCUGUCUGUGCCGCCCUCCUCGUCCCUCGAGGACCGGUACGGCCGCCACUCGAGUGAUGUUCGGGUAGCCAUCCCUGCCAGC [BDazzled - #20 Exc. Tryptophan A]	527	328	431	341	322
GGUGCUGUUUGUGCCGCCUUCCUCGUUCCUCGAGGACCGGUACGGCCGCCACUCGAGUGAUGUUUGGGUAGCGAUCCCUGCUAGU [Bdazzled - #13 Exc. Tryptophan A]	892	621	963	658	799
GGUUUAUAGGAGGAUACCAGUACGGAUAAAGUACGUUAAUAGUAGAGUGAUGUUCUAAAGUACCCUUGGCAGCUUAGAGUGAGUG [ExTheophylB.M]	98.6	164	136	182	94.3
